This is an account of results in US20240025971A1 (ATRECA, published 2024).

Changes are numbered by the printed parent chain.

B1: AB-009190 (antibody, V domains shown)
VH: QVQLVESGGGVVQPGRSLRLSCAASGFTFSSYAMHWVRQAPGKGLEWVAVISYDGSNKYYADSVKGRFTISRDNSKNTLYLQMNSLRAEDTAVYYCARLNGDAYYYYGMDVWGQGTTVTVSS
VL: not shown
notes: human IgG1
B2: AB-009213 (antibody, V domains shown)
VH: EVQLVESGGGLVKPGGSLRLSCAASGFTFSSYSMNWVRQAPGKGLEWVSSISSSSSYIYYADSVKGRFTISRDNAKNSLYLQMNSLRAEDTAVYYCARDKLREDGDYDDAFDIWGQGTMVTVSS
VL: not shown
notes: human IgG1
B3: AB-009627 (antibody, V domains shown)
VH: QVQLQQWGAGLLKPSETLSLTCAVYGGSFSGYYWSWIRQPPGKGLEWIGEINHSGSTNYNPSLKSRVTISVDTSKNQFSLKLSSVTAADTAVFYCARGGYSSSWYGEKYWFDPWGQGTLVTVSS
VL: QSALTQPRSVSGSPGQSVTISCTGTSSDVGGYNYVSWYQQHPGKAPKLMIYDVSKRPSGVPDRFSGSKSGNTASLTISGLQAEDEADYYCCSYAGSPYVFGTGTKVTVL
notes: human IgG1
B4: AB-010020 (antibody, V domains shown)
VH: QMQLVQSGPEVKKPGTSVKVSCKASGFTFTSSAVQWVRQARGQRLEWIGWIVVGSGNTNYAQKFQERVTITRDMSTSTAYMELSSLRSEDTAVYYCAAPACSSTSCYDGFDIWGQGTMVTVSS
VL: not shown
notes: human IgG1
B5: AB-010021 (antibody, V domains shown)
VH: B4 VH with P99V, A100Y, S103G, T104G, Y107L, G109A
VL: not shown
notes: human IgG1; also called AB-0010021
B6: AB-009271 (antibody, V domains shown)
VH: EVQLVESGGGLIQPGGSLRLSCAASGFIVSSNYMSWVRQAPGKGLEWVSVIYSGGSTYYADSVKGRFTISRDNSKNTLYLQMNSLRAEDTAVYYCARDYGDFYFDYWGQGTLVTVSS
VL: EIVMTQSPATLSVSPGERATLSCRASQSVSSNLAWYQQKPGQAPRLLIYGASTRATGIPARFSGSGSGTEFTLTISSLQSEDFAVYYCQQYYNWPRTFGQGTKVEIK
notes: human IgG1
B7: AB-009613 (antibody, V domains shown)
VH: B6 VH with I28T
VL: not shown
notes: human IgG1
B8: AB-009610 (antibody, V domains shown)
VH: QVQLVQSGAEVKKPGSSVKVSCKASGGTFSNYAISWVRQAPGQGLEWMGRIIPILGIANYAQKFQGRVTITADKSTSTAYMELSSLRSEDTAVYYCATTPYYYDSSGYYLDYWGQGTLVTVSS
VL: not shown
notes: human IgG1
B9: AB-009666 (antibody, V domains shown)
VH: EVQLVESGGGLVQPGGSLRLSCAASGFTFSSYDMHWVRQATGKGLEWVSTIGTAGDTYYPGSVKGRFTISRENAKNSLYLQMNSLRAEDTAVYYCARVNYDSSGYPTYWYFDLWGRGTLVTVSS
VL: DIQMTQSPSSLSASVGDRVTITCRASQSISRYLNWYQQKPGKAPKLLIYAASSLQSGVPSRFSGSGSGTDFTLTISSLQPEDFATYNCQQSYSSPPWTFGQGTKVEIK
notes: human IgG1
B10: AB-009634 (antibody, V domains shown)
VH: QVTLKESGPALVKPTQTLTLTCTFSGFSLSTSGMRVSWIRQPPGKALEWLARIDWDDDKFYSTSLKTRLTISKDTSKNQVVLTMTNMDPVDTATYYCARYYYYGMDVWGQGTTVTVSS
VL: not shown

For one assay, the target named is T1, SARS-CoV-2 Receptor Binding Domain (RBD) (SARS-CoV-2, UniProt P0DTC2 319-541).
T1 construct: also called RBD protein
The assay can be described thus: BLI. A general note: BLI is a label-free optical method that tracks binding on a fibre tip over time.
Regarding B1, the binding result was “no binding (tested: 300 nM)”.
Still for that read-out and setting: as for B2, the entry is “no binding (tested: 300 nM)”.

The target in the next assay is T2, SARS-CoV-2 S1 protein (SARS-CoV-2, UniProt P0DTC2 16-685).
T2 construct: domain: S1 protein; also called S1 monomer
The assay can be described thus: BLI.
Take B1: the binding result is listed as “no binding (tested: 300 nM)”.
Still for that read-out and setting: as for B3, the entry is “no binding (tested: 300 nM)”; as for B2, “no binding (tested: 300 nM)”.

The target in the next assay is T3, SARS-CoV-2 S2 protein (SARS-CoV-2, UniProt P0DTC2 686-1213).
T3 construct: domain: S2 protein; also called S2 monomer
The assay can be described thus: BLI.
For B1, the binding result is on record as “no binding (tested: 300 nM)”.
The same measure, in the same setting: in the case of B4 it was “no binding (tested: 300 nM)”; in that of B5, “no binding (tested: 300 nM)”.
Same read-out and setting: in the case of B6 it was “no binding (tested: 300 nM)”; in that of B7, “no binding (tested: 300 nM)”.
On the same count and under the same terms, as for B8, the entry is “no binding (tested: 300 nM)”; as for B9, “no binding (tested: 300 nM)”.
Regarding B2, the binding result was “no binding (tested: 300 nM)”.

Another assay concerns the target SARS-CoV-2 Nucleocapsid (N) protein (SARS-CoV-2, UniProt P0DTC9 1-419). The assay can be described thus: BLI.
As for B6, the binding result is given as “no binding (tested: 300 nM)”.
In the case of B7, the binding result is listed as “no binding (tested: 300 nM)”.
On the same count and under the same terms, as for B3, the entry is “no binding (tested: 300 nM)”.
Same read-out and setting: as for B8, the entry is “no binding (tested: 300 nM)”.
Still for that read-out and setting: as for B9, the entry is “no binding (tested: 300 nM)”.

A further assay concerns the target T4, SARS-CoV-2 Spike (S) trimer (SARS-CoV-2, UniProt P0DTC2 14-1208).
T4 construct: also called Spike trimer
The assay can be described thus: ELISA.
On to B1, for which the binding result was “no binding (tested: 2-fold over hIgG1 background)”.
For the molecule B2, the binding result is listed as “no binding (tested: 2-fold over hIgG1 background)”.

The next assay addresses T5, SARS-CoV-2 Envelope (E) protein (SARS-CoV-2, UniProt P0DTC4 1-75). The assay can be described thus: ELISA. On the technique in general: An ELISA detects its analyte on a solid surface through an enzyme-linked reagent.
As for B6, the binding result is “no binding (tested: 2-fold over hIgG1 background)”.
On the same count and under the same terms, in the case of B7 it was “no binding (tested: 2-fold over hIgG1 background)”.
Still for that read-out and setting: in the case of B3 it was “no binding (tested: 2-fold over hIgG1 background)”; in that of B8, “no binding (tested: 2-fold over hIgG1 background)”; in that of B9, “no binding (tested: 2-fold over hIgG1 background)”.

In the next assay the target is SARS-CoV-1 spike (pseudovirus) (SARS-CoV-1, UniProt P59594 14-1255). The assay can be described thus: cell-based or functional assay.
As to B4, the “Pseudovirus Neutralization” value was above 50 µg/mL.
On the same count and under the same terms, as for B5, the figure is above 50 µg/mL; as for B6, above 50 µg/mL.
Still for that read-out and setting: in the case of B7 it was above 50 µg/mL.
Consider B8, for which the “Pseudovirus Neutralization” value was above 50 µg/mL.

For the next assay, the target named is SARS-CoV-2 Wuhan-1 full-length Spike protein (SARS-CoV-2, UniProt P0DTC2 14-1273). The assay can be described thus: cell-based or functional assay.
As for B4, the “Pseudovirus Neutralization” value came to 0.004 µg/mL.
Still for that read-out and setting: as for B5, the figure is 1.56 µg/mL; as for B6, 0.058 µg/mL.
Still for that read-out and setting: in the case of B7 it was 1.53 µg/mL; in that of B8, 6.77 µg/mL.

The target of a further assay is T5, SARS-CoV-2 Envelope (E) protein. The assay can be described thus: ELISA, Envelope protein.
On to B1, for which the “Optical Density (OD; 450 nm)” value was determined as 0.469 OD450.

A further assay has as its target SARS-CoV-2 Spike (S) trimer (SARS-CoV-2, UniProt P0DTC2 14-1208). The assay can be described thus: ELISA, S trimer coated, 1:50 dilution.
In the case of B10, the “Optical Density (OD; 450 nm)” value was determined as 2.46 OD450.

The next assay addresses T4, SARS-CoV-2 Spike (S) trimer. The assay can be described thus: ELISA, S trimer coated, 1:50 dilution.
Turning to B6, the “Optical Density (OD; 450 nm)” value is 2.94 OD450.
On the same count and under the same terms, as for B7, the figure is 2.47 OD450; as for B8, 2.02 OD450; as for B9, 2.76 OD450.
